This test concerns the target cLUC-LcMYB111 (litchi).

Experimental findings from article PMC10706726 are described below.

Substance LcHY5-nLUC (natural protein) returned a dual-luciferase reporter (LUC/REN): activation of proLcFLS-A when LcMYB111 was co-infiltrated with LcHY5 (untagged effectors) of 18.8 fold and a dual-luciferase reporter (LUC/REN): activation of proLcFLS-B when LcMYB111 was co-infiltrated with LcHY5 (untagged effectors) of 5.78 fold.
